US20230149544A1 (ALTRUBIO, published 2023)

Target: T1, human PSGL-1 (human, UniProt Q14242 42-412)
T1 sequence: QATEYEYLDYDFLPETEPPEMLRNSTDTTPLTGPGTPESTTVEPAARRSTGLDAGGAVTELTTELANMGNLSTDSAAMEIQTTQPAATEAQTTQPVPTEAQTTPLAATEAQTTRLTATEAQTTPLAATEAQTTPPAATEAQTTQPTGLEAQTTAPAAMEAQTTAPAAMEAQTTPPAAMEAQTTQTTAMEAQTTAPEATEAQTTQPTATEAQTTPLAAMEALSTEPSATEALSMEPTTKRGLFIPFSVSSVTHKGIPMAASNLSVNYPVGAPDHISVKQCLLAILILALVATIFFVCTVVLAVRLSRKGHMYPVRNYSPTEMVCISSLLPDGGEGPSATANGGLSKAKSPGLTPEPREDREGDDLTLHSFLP
Test: cell-based or functional assay

B1: anti-PSGL-1 antibody 15A7H (antibody, human IgG4 S228P, kappa, V domains shown)
VH: EVQLVESGGGLVQPGGSLRLSCAASGFTFSSFGMHWVRQAPGKGLEWVAYINGGSSTIFYANAVKGRFTISRDNAKNTLYLQMNSLRAEDTAVYYCARYASYGGGAMDYWGQGTLVTVSS
VL: DIQMTQSPSSLSASVGDRVTITCRSSQSIVHNDGNTYFEWYQQKPGKAPKLLIYKVSNRFSGVPSRFSGSGSGTHFTLTISSLQPEDFATYYCFQGSYVPLTFGQGTKVEIKR
EC50 15A7H, single treatment; apoptosis of activated T cells (Annexin V/PI, 48 h, with cross-linker), donor N084, ratio block 1.1:1: 0.328 mg/L | EC50 15A7H, single treatment; apoptosis of activated T cells (Annexin V/PI, 48 h, with cross-linker), donor N084, ratio block 3.3:1: 0.328 mg/L | EC50 15A7H, single treatment; apoptosis of activated T cells (Annexin V/PI, 48 h, with cross-linker), donor N089, ratio block 1.1:1: 0.816 mg/L | EC50 15A7H, single treatment; apoptosis of activated T cells (Annexin V/PI, 48 h, with cross-linker), donor N089, ratio block 3.3:1: 0.865 mg/L | EC50 15A7H, single treatment; apoptosis of activated T cells (Annexin V/PI, 48 h, with cross-linker), donor N102, ratio block 0.37:1: 0.959 mg/L | EC50 15A7H, single treatment; apoptosis of activated T cells (Annexin V/PI, 48 h, with cross-linker), donor N102, ratio block 1.1:1: 0.959 mg/L | EC50 15A7H, single treatment; apoptosis of activated T cells (Annexin V/PI, 48 h, with cross-linker), donor N102, ratio block 3.3:1: 0.959 mg/L | EC50 15A7H, single treatment; apoptosis of activated T cells (Annexin V/PI, 48 h, with cross-linker), donor N103, ratio block 0.37:1: 1.4 mg/L | EC50 15A7H, single treatment; apoptosis of activated T cells (Annexin V/PI, 48 h, with cross-linker), donor N103, ratio block 1.1:1: 1.4 mg/L | EC50 15A7H, single treatment; apoptosis of activated T cells (Annexin V/PI, 48 h, with cross-linker), donor N103, ratio block 3.3:1: 1.4 mg/L
